Data taken from US20240148878A1, “THERAPEUTIC POLY-ADP-RIBOSE POLYMER-GCSF CONJUGATES” (UNIVERSITY OF SOUTHERN CALIFORNIA, priority 2022, published 2024).

T1: GCSF receptor on mouse NFS-60 cells (mouse (NFS-60 cells)) (UniProt P40223)
T1 sequence (looked up): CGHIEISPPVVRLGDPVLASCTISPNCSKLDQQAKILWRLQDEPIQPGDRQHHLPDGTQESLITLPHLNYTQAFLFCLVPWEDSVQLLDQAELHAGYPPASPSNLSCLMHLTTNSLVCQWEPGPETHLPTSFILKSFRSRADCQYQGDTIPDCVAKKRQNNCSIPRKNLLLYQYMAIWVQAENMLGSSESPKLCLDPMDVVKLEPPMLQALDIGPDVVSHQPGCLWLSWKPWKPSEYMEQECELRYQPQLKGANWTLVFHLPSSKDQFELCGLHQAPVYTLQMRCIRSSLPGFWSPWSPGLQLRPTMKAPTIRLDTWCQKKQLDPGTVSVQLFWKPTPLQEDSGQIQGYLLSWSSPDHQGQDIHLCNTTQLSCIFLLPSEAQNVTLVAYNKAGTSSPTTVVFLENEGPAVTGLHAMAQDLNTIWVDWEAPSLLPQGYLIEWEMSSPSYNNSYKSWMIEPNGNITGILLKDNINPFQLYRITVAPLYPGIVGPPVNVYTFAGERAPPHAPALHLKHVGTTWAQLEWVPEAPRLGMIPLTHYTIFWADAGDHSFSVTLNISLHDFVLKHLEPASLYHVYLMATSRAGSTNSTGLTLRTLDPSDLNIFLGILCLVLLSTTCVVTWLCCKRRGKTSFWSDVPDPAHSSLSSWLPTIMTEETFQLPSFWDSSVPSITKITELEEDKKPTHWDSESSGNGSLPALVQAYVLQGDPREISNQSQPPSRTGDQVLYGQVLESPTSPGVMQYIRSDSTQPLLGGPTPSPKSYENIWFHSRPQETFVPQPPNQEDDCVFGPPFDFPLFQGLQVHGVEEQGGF

B1: GCSF: Recombinant human granulocyte colony-stimulating factor (His6) expressed in Expi293F cells (protein)
chain: TPLGPASSLPQSFLLKCLEQVRKIQGDGAALQEKLVSECATYKLCHPEELVLLGHSLGIPWAPLSSCPSQALQLAGCLSQLHSGLFLYQGLLQALEGISPELGPTLDTLQLDVADFATTIWQQMEELGMAPALQPTQGAMPAFASAFQRRAGGVLVASHLQSFLEVSYRVLRHLAQPHHHHHH

How the values were obtained:
[1] = molecular target: T1, GCSF receptor on mouse NFS-60 cells (mouse (NFS-60 cells)); assay: cell-based or functional assay
[2] = molecular target: anti-GCSF monoclonal antibody (clone: BVD13-3A5, BioLegend); assay: sandwich ELISA, BVD13-3A5 coated, detection anti-GCSF 3D1-HRP; analyte 125 ng/mL, replicate #1
[3] = molecular target: anti-GCSF monoclonal antibody (clone: BVD13-3A5, BioLegend); assay: sandwich ELISA, BVD13-3A5 coated, detection anti-GCSF 3D1-HRP; analyte 125 ng/mL, replicate #2
[4] = molecular target: anti-GCSF monoclonal antibody (clone: BVD13-3A5, BioLegend); assay: sandwich ELISA, BVD13-3A5 coated, detection anti-GCSF 3D1-HRP; analyte 250 ng/mL, replicate #1
[5] = molecular target: anti-GCSF monoclonal antibody (clone: BVD13-3A5, BioLegend); assay: sandwich ELISA, BVD13-3A5 coated, detection anti-GCSF 3D1-HRP; analyte 250 ng/mL, replicate #2
[6] = molecular target: anti-GCSF monoclonal antibody (clone: BVD13-3A5, BioLegend); assay: sandwich ELISA, BVD13-3A5 coated, detection anti-GCSF 3D1-HRP; analyte 500 ng/mL, replicate #1
[7] = molecular target: anti-GCSF monoclonal antibody (clone: BVD13-3A5, BioLegend); assay: sandwich ELISA, BVD13-3A5 coated, detection anti-GCSF 3D1-HRP; analyte 500 ng/mL, replicate #2
[8] = molecular target: anti-GCSF monoclonal antibody (clone: BVD13-3A5, BioLegend); assay: sandwich ELISA, BVD13-3A5 coated, detection anti-GCSF 3D1-HRP; analyte 62.5 ng/mL, replicate #1
[9] = molecular target: anti-GCSF monoclonal antibody (clone: BVD13-3A5, BioLegend); assay: sandwich ELISA, BVD13-3A5 coated, detection anti-GCSF 3D1-HRP; analyte 62.5 ng/mL, replicate #2
[10] = molecular target: anti-GCSF monoclonal antibody (clone: BVD13-3A5, BioLegend); assay: sandwich ELISA, BVD13-3A5 coated, detection anti-GCSF 3D1-HRP; analyte 31.25 ng/mL, replicate #1
[11] = molecular target: anti-GCSF monoclonal antibody (clone: BVD13-3A5, BioLegend); assay: sandwich ELISA, BVD13-3A5 coated, detection anti-GCSF 3D1-HRP; analyte 31.25 ng/mL, replicate #2
[12] = test system: mouse NFS-60 cells; assay: In vitro proliferation assay (MTT); assay type: cell-based; details: for EC50: NFS-60 cells, 72 hours, MTT, read-out: EC50 of stimulatory (proliferative) activity
Method: FIG. 3 illustrates the PARylated PARP1-GCSF conjugate stimulates proliferation of mouse NFS-60 cells in a dose-dependent manner. Cells were treated with various concentrations of PARylated PARP1, PARylated PARP1-GCSF conjugate, and human GCSF for 72 hours. Cell viabilities were quantified using MTT assays.
Cell lines. Mouse NFS-60 cells were grown in RPMI 1640 medium containing 10% FBS, 0.05 mM 2-mercaptoethanol and 62 ng/mL human recombinant macrophage colony stimulating factor (M-CSF). Expi293F cells were purchased from Thermo Fisher Scientific and cultured in Expi293F expression medium with shaking at a speed of 125 rpm at 37° C. and 8% CO2.
In vitro proliferation assays. Mouse NFS-60 cells were cultured in RPMI 1640 medium containing 10% FBS, 0.05 mM 2-mercapoethanol and 62 ng/ml human recombinant M-CSF. To examine the proliferative activity of PARylated PARP1-GCSF conjugate, cells were washed three times with DPBS buffer, resuspended in RPMI-1640 medium with 10% FBS and 0.05 mM 2-mercapoethanol, plated in 96-well plates (1.5×10^4 cells per well) with various concentrations of GCSF, PARylated PARP1, or PARylated PARP1-hG-CSF conjugate, and incubated for 72 hours at 37° C. with 5% CO2. Cells were then treated with 0.5 mg mL^−1 3-(4,5-dimethylthiazol-2-yl)-2,5-diphenyltetrazolium bromide (MTT) solution for 3 hours at 37° C., followed by additions of 100 μL of lysis buffer (20% SDS in 50% dimethylformamide, 0.5% (v:v) 80% acetic acid, 0.4% (v:v) 1 N HCl, pH 4.7) and incubated for 4 hours at 37° C. Fluorescence intensity measured at 595 nm is proportional to cell viability.

[13] = test system: neutrophil populations in blood; assay: In vivo efficacy: neutrophil populations in blood by flow cytometry after single s.c. dose; design: species or system CD1 mice; details: for neutrophil percentage reached after sharp increase: within 24 hours, from approximately 10%
Excerpt: FIG. 4A-C illustrates in vivo efficacy of the PARylated PARP1-GCSF conjugate. Single doses of GCSF (1.25 nmol), PARylated PARP1 (2.5 nmol) and PARylated PARP1-GCSF conjugate (0.5 or 2.5 nmol) were administrated by subcutaneous (s.c.) injections into CD1 mice (five per group). Blood was collected and analyzed for neutrophil populations by flow cytometry using fluorophore-labeled anti-mouse CD45, anti-mouse CD11b, and anti-mouse Ly-6G antibodies. (A)-(B) Neutrophil percentages in mouse blood after the single-dose treatments. For (B), 1=PBS; 2=GCSF 1.25 nmol; 3=PARylated PARP1 2.5 nmol; 4=PARylated PARP1-GCSF 0.5 nmol; 5=PARylated PARP1-GCSF 2.5 nmol. (C) Representative flow cytometric analyses of mouse neutrophil populations after treatments with 1) PBS; 2) GCSF 1.25 nmol; 3) PARylated PARP1 2.5 nmol; 4) PARylated PARP1-GCSF 0.5 nmol; and 5) PARylated PARP1-GCSF 2.5 nmol conjugate. ns=not significant, p>0.05; *, p<0.05; **, p<0.01; ***, p<0.001; ****, p<0.0001. Data for the 5 conjugates are listed for days 0, 1, 5, and 11.
Animals. Female CD-1 IGS mice (22-24 g) were purchased from Charles River Laboratories (Wilmington, MA). All animal studies were performed under a protocol approved by the Institutional Animal Care and Use Committee of the University of Southern California.
In vivo efficacy of the PARylated PARP1-GCSF conjugate. Single doses of GCSF (1.25 nmol), PARylated PARP1 (2.5 nmol), or PARylated PARP1-GCSF conjugate (0.5 or 2.5 nmol) were administrated by subcutaneous (s.c.) injections into CD1 mice (5 per group). Blood was collected at day 0 through day 13 and analyzed by flow cytometry to measure percentages of neutrophil populations in white blood cells using pacific blue anti-mouse CD45 (clone: 30-F11, BioLegend), APC anti-mouse CD11b (clone: M1/70, eBioscence, Carlsbad, CA), and FITC anti-mouse Ly-6G antibodies (clone: 1A8, BioLegend).

Molecule | EC50, proliferation of mouse NFS-60 cells (MTT, 72 hours) [1] | fold potency against free GCSF, proliferation of mouse NFS-60 cells [1] | Fluorescence Intensity [2] | Fluorescence Intensity [3] | Fluorescence Intensity [4] | Fluorescence Intensity [5] | Fluorescence Intensity [6] | Fluorescence Intensity [7] | Fluorescence Intensity [8] | Fluorescence Intensity [9] | Fluorescence Intensity [10] | Fluorescence Intensity [11] | EC50 [12] | fold increased potency versus recombinant human GCSF ([12]; ratio of EC50, NFS-60 cells) | duration of sustained elevated levels of neutrophil ([13]; conjugate 2.5 nmol) | neutrophil-stimulating activity compared with 1.25 nmol GCSF ([13]; conjugate at a dose of 0.5 nmol) | neutrophil percentage reached after sharp increase [13]
PARylated PARP1-GCSF conjugate (from UniProt P09874 1-1014) | 0.00602 nM | 4 fold | 32100 | 44700 | 49400 | 49200 | 64500 | 64900 | 22800 | 20700 | 15900 | 15900 |  |  |  |  | 
PARylated PARP1-GCSF conjugate: Auto-PARylated human PARP1 (3′-azido NAD+-derived PAR polymers) click-conjugated with alkyne-functionalized human GCSF, 14.0±0.5 GCSF molecules on average |  |  |  |  |  |  |  |  |  |  |  |  | 0.00602 ± 0.00093 nM | approximately 4 fold | 11 days | comparable | ~50%
Recombinant human granulocyte colony-stimulating factor (GCSF) with His6 tag, expressed in Expi293F cells (from UniProt P09919 31-207) (ligand) | 0.0248 nM |  | 42300 | 42700 | 62200 | 60700 | 75700 | 76500 | 29400 | 29800 | 19900 | 20700 |  |  |  |  | 
B1 |  |  |  |  |  |  |  |  |  |  |  |  | 0.0248 ± 0.00321 nM |  |  |  | ~50%
